System: Escherichia coli TOP10
Assay: shrunken log2 fold change of peptide-encoding DNA abundance (4.5 h post-induction vs induction); higher = less antimicrobial activity (less host growth inhibition)
Conditions: time post-induction: 4.5 h; library: site-saturation at positions 5, 18, 19, 20
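Further: peptides expressed intracellularly from a pBAD plasmid library in pooled LB shake-flask culture, induced with 0.3% L-arabinose, DNA abundance read by NGS, three biological replicates, DESeq2 with apeglm shrinkage.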

Row | Sequence | shrunken log2 fold change
1 | RRIRSRPPRLPRPRPRPNIAPRP | 0.0275
2 | RRIRTRPPRLPRPRPRPIHIPRP | 0.0274
3 | RRIRTRPPRLPRPRPRPKISPRP | -0.932
4 | RRIRPRPPRLPRPRPRPVFWPRP | 0.546
5 | RRIRLRPPRLPRPRPRPMRAPRP | 0.862
6 | RRIRQRPPRLPRPRPRPEGCPRP | -0.0749
7 | RRIRERPPRLPRPRPRPHQAPRP | 0.0779
8 | RRIRCRPPRLPRPRPRPDCCPRP | -0.206
9 | RRIRYRPPRLPRPRPRPEVMPRP | 0.00902
10 | RRIRTRPPRLPRPRPRPAANPRP | 0.0922
11 | RRIRHRPPRLPRPRPRPGGNPRP | 0.00148
12 | RRIRRRPPRLPRPRPRPCIRPRP | -0.135
13 | RRIRERPPRLPRPRPRPIPCPRP | -0.341
14 | RRIRTRPPRLPRPRPRPSWEPRP | 0.0239
15 | RRIRERPPRLPRPRPRPKSAPRP | 0.116
16 | RRIRTRPPRLPRPRPRPPKFPRP | -0.025
17 | RRIRNRPPRLPRPRPRPLTLPRP | -0.358
18 | RRIRVRPPRLPRPRPRPQMQPRP | -0.325
19 | RRIRFRPPRLPRPRPRPATCPRP | 0.00724
20 | RRIRCRPPRLPRPRPRPMNSPRP | -0.141
21 | RRIRGRPPRLPRPRPRPVEFPRP | 0.596
22 | RRIRPRPPRLPRPRPRPTKPPRP | 0.323
23 | RRIRPRPPRLPRPRPRPSVIPRP | -0.00563
24 | RRIRRRPPRLPRPRPRPHHHPRP | -0.161
25 | RRIRMRPPRLPRPRPRPSNGPRP | -0.0373

Row | Sequence | shrunken log2 fold change
26 | RRIRWRPPRLPRPRPRPQWVPRP | 0.0902
27 | RRIRSRPPRLPRPRPRPVNFPRP | -0.262
28 | RRIRKRPPRLPRPRPRPNCAPRP | 0.873
29 | RRIRCRPPRLPRPRPRPIYVPRP | -0.447
30 | RRIRTRPPRLPRPRPRPAVNPRP | 0.000461
31 | RRIRPRPPRLPRPRPRPFKGPRP | -0.209
32 | RRIRTRPPRLPRPRPRPCSPPRP | -0.0356
33 | RRIRWRPPRLPRPRPRPFFGPRP | 0.352
34 | RRIRKRPPRLPRPRPRPANDPRP | 0.0931
35 | RRIRVRPPRLPRPRPRPPLRPRP | 0.93
36 | RRIRFRPPRLPRPRPRPGAFPRP | -0.162
37 | RRIRVRPPRLPRPRPRPQRQPRP | -0.207
38 | RRIRLRPPRLPRPRPRPTCRPRP | 0.187
39 | RRIRGRPPRLPRPRPRPTNHPRP | 0.169
40 | RRIRRRPPRLPRPRPRPFPWPRP | -0.0263
41 | RRIRLRPPRLPRPRPRPFHQPRP | -1
42 | RRIRVRPPRLPRPRPRPDMWPRP | -0.499
43 | RRIRYRPPRLPRPRPRPIQHPRP | -0.89
44 | RRIRARPPRLPRPRPRPGLVPRP | 0.542
45 | RRIRMRPPRLPRPRPRPESSPRP | 0.135
46 | RRIRCRPPRLPRPRPRPIIFPRP | -0.726
47 | RRIRGRPPRLPRPRPRPDYKPRP | -0.0972
48 | RRIRPRPPRLPRPRPRPVEMPRP | 0.0666
49 | RRIRYRPPRLPRPRPRPDAYPRP | -0.599
50 | RRIRPRPPRLPRPRPRPIEFPRP | -0.114

Row | Sequence | shrunken log2 fold change
51 | RRIRKRPPRLPRPRPRPNTIPRP | 0.0945
52 | RRIRTRPPRLPRPRPRPILQPRP | -0.44
53 | RRIRHRPPRLPRPRPRPLHLPRP | -0.0926
54 | RRIRTRPPRLPRPRPRPKVLPRP | -0.015
55 | RRIRTRPPRLPRPRPRPLSLPRP | -0.613
56 | RRIRTRPPRLPRPRPRPPDCPRP | 0.0461
57 | RRIRDRPPRLPRPRPRPAKHPRP | 0.0985
58 | RRIRHRPPRLPRPRPRPPVDPRP | 1.89
59 | RRIRLRPPRLPRPRPRPYFMPRP | -0.855
60 | RRIRPRPPRLPRPRPRPPYIPRP | -0.251
61 | RRIRMRPPRLPRPRPRPQFNPRP | -0.661
62 | RRIRSRPPRLPRPRPRPCQEPRP | -0.0101
63 | RRIRCRPPRLPRPRPRPGLDPRP | 0.191
64 | RRIRERPPRLPRPRPRPEGWPRP | 0.668
65 | RRIRARPPRLPRPRPRPTCEPRP | 0.723
66 | RRIRSRPPRLPRPRPRPRNEPRP | 0.00717
67 | RRIRTRPPRLPRPRPRPEEAPRP | -0.0948
68 | RRIRTRPPRLPRPRPRPCPSPRP | -0.0705
69 | RRIRVRPPRLPRPRPRPQEKPRP | 0.0369
70 | RRIRHRPPRLPRPRPRPSNPPRP | -0.219
71 | RRIRERPPRLPRPRPRPNPSPRP | -0.162
72 | RRIRTRPPRLPRPRPRPHAWPRP | 3.26
73 | RRIRQRPPRLPRPRPRPLLNPRP | -0.29
74 | RRIRFRPPRLPRPRPRPFKKPRP | -0.119
75 | RRIRQRPPRLPRPRPRPMTTPRP | 3.23

Row | Sequence | shrunken log2 fold change
76 | RRIRTRPPRLPRPRPRPITEPRP | -0.183
77 | RRIRSRPPRLPRPRPRPPEFPRP | -0.119
78 | RRIRVRPPRLPRPRPRPQLDPRP | 0.269
79 | RRIRIRPPRLPRPRPRPQCSPRP | -0.46
80 | RRIRYRPPRLPRPRPRPELEPRP | 0.0858
81 | RRIRNRPPRLPRPRPRPEMHPRP | 0.191
82 | RRIRNRPPRLPRPRPRPRNHPRP | -0.0174
83 | RRIRYRPPRLPRPRPRPQQNPRP | -0.421
84 | RRIRDRPPRLPRPRPRPLTFPRP | -0.212
85 | RRIRERPPRLPRPRPRPMKHPRP | -0.794
86 | RRIRSRPPRLPRPRPRPEPWPRP | 0.548
87 | RRIRARPPRLPRPRPRPWRSPRP | 0.143
88 | RRIRIRPPRLPRPRPRPNKEPRP | -0.131
89 | RRIRRRPPRLPRPRPRPYGTPRP | -0.231
90 | RRIRHRPPRLPRPRPRPSMIPRP | -0.23
91 | RRIRKRPPRLPRPRPRPLHKPRP | 0.342
92 | RRIRARPPRLPRPRPRPGAMPRP | 0.959
93 | RRIRGRPPRLPRPRPRPKFMPRP | 0.316
94 | RRIRFRPPRLPRPRPRPMELPRP | 0.112
95 | RRIRWRPPRLPRPRPRPVQSPRP | 0.0186
96 | RRIRIRPPRLPRPRPRPKTIPRP | -0.25
97 | RRIRLRPPRLPRPRPRPQHRPRP | -0.0199
98 | RRIRLRPPRLPRPRPRPQQDPRP | -0.29
99 | RRIRYRPPRLPRPRPRPYTEPRP | 0.034
100 | RRIRHRPPRLPRPRPRPTGGPRP | 0.0928

Row | Sequence | shrunken log2 fold change
101 | RRIRHRPPRLPRPRPRPQMWPRP | 2.46e-05
102 | RRIRSRPPRLPRPRPRPLHEPRP | 0.339
103 | RRIRGRPPRLPRPRPRPIDQPRP | 0.436
104 | RRIRLRPPRLPRPRPRPPSRPRP | 0.175
105 | RRIRRRPPRLPRPRPRPFGAPRP | 0.153
106 | RRIRKRPPRLPRPRPRPEIEPRP | 2.58
107 | RRIRHRPPRLPRPRPRPLANPRP | -0.263
108 | RRIRWRPPRLPRPRPRPNQFPRP | 0.0104
109 | RRIRERPPRLPRPRPRPMGYPRP | -0.0965
110 | RRIRYRPPRLPRPRPRPCNTPRP | -0.425
111 | RRIRARPPRLPRPRPRPYCPPRP | -0.585
112 | RRIRNRPPRLPRPRPRPCNYPRP | -0.164
113 | RRIRTRPPRLPRPRPRPHHEPRP | -0.103
114 | RRIRQRPPRLPRPRPRPHEHPRP | 0.0439
115 | RRIRSRPPRLPRPRPRPAAAPRP | 0.868
116 | RRIRARPPRLPRPRPRPVMDPRP | 0.671
117 | RRIRYRPPRLPRPRPRPSRDPRP | 0.0382
118 | RRIRWRPPRLPRPRPRPNPLPRP | 3.58e-05
119 | RRIRERPPRLPRPRPRPDIRPRP | -0.0427
120 | RRIRDRPPRLPRPRPRPGELPRP | 0.684
121 | RRIRHRPPRLPRPRPRPPIRPRP | 0.309
122 | RRIRGRPPRLPRPRPRPKDWPRP | 0.914
123 | RRIRKRPPRLPRPRPRPNMFPRP | -0.155
124 | RRIRARPPRLPRPRPRPWCTPRP | -0.284
125 | RRIRVRPPRLPRPRPRPLMFPRP | -0.449

Row | Sequence | shrunken log2 fold change
126 | RRIRIRPPRLPRPRPRPFMKPRP | -0.127
127 | RRIRCRPPRLPRPRPRPWRNPRP | -0.157
128 | RRIRFRPPRLPRPRPRPIVVPRP | -0.0214
129 | RRIRVRPPRLPRPRPRPGIFPRP | -0.0463
130 | RRIRVRPPRLPRPRPRPLRVPRP | 0.543
131 | RRIRNRPPRLPRPRPRPYVFPRP | -0.7
132 | RRIRGRPPRLPRPRPRPSKTPRP | 0.558
133 | RRIRERPPRLPRPRPRPQHKPRP | -0.467
134 | RRIRLRPPRLPRPRPRPDFWPRP | 0.484
135 | RRIRQRPPRLPRPRPRPYPRPRP | -0.258
136 | RRIRERPPRLPRPRPRPTYWPRP | -0.219
137 | RRIRSRPPRLPRPRPRPRCDPRP | 0.144
138 | RRIRWRPPRLPRPRPRPCFKPRP | 0.0478
139 | RRIRMRPPRLPRPRPRPYFVPRP | 0.0021
140 | RRIRTRPPRLPRPRPRPQWIPRP | -0.809
141 | RRIRTRPPRLPRPRPRPINEPRP | -0.405
142 | RRIRSRPPRLPRPRPRPYYHPRP | -0.44
143 | RRIRMRPPRLPRPRPRPTVDPRP | 0.00715
144 | RRIRARPPRLPRPRPRPKLKPRP | 0.272
145 | RRIRQRPPRLPRPRPRPTDKPRP | -0.112
146 | RRIRNRPPRLPRPRPRPIYKPRP | -0.414
147 | RRIRVRPPRLPRPRPRPICMPRP | -0.0265
148 | RRIRQRPPRLPRPRPRPQCVPRP | -0.0168
149 | RRIRSRPPRLPRPRPRPWQYPRP | 0.0433
150 | RRIRWRPPRLPRPRPRPNFIPRP | -0.174
